Measured values taken from publication PMC11574312, “The role of ATP-binding Cassette subfamily B member 6 in the inner ear” (Nature Communications, 2024).

Target: the molecule itself
Assay: cryo-EM structure; ABCB6 WT purified in DDM/CHS, about 3.6 mg/mL on grids; apo, inward-facing; final refinement with C2 symmetry applied

B1: human ATP-binding cassette sub-family B member 6 (ABCB6) WT-Flag (natural protein)
chain: MVTVGNYCEAEGPVGPAWMQDGLSPCFFFTLVPSTRMALGTLALVLALPCRRRERPAGADSLSWGAGPRISPYVLQLLLATLQAALPLAGLAGRVGTARGAPLPSYLLLASVLESLAGACGLWLLVVERSQARQRLAMGIWIKFRHSPGLLLLWTVAFAAENLALVSWNSPQWWWARADLGQQVQFSLWVLRYVVSGGLFVLGLWAPGLRPQSYTLQVHEEDQDVERSQVRSAAQQSTWRDFGRKLRLLSGYLWPRGSPALQLVVLICLGLMGLERALNVLVPIFYRNIVNLLTEKAPWNSLAWTVTSYVFLKFLQGGGTGSTGFVSNLRTFLWIRVQQFTSRRVELLIFSHLHELSLRWHLGRRTGEVLRIADRGTSSVTGLLSYLVFNVIPTLADIIIGIIYFSMFFNAWFGLIVFLCMSLYLTLTIVVTEWRTKFRRAMNTQENATRARAVDSLLNFETVKYYNAESYEVERYREAIIKYQGLEWKSSASLVLLNQTQNLVIGLGLLAGSLLCAYFVTEQKLQVGDYVLFGTYIIQLYMPLNWFGTYYRMIQTNFIDMENMFDLLKEETEVKDLPGAGPLRFQKGRIEFENVHFSYADGRETLQDVSFTVMPGQTLALVGPSGAGKSTILRLLFRFYDISSGCIRIDGQDISQVTQASLRSHIGVVPQDTVLFNDTIADNIRYGRVTAGNDEVEAAAQAAGIHDAIMAFPEGYRTQVGERGLKLSGGEKQRVAIARTILKAPGIILLDEATSALDTSNERAIQASLAKVCANRTTIVVAHRLSTVVNADQILVIKDGCIVERGRHEALLSRGGVYADMWQLQQGQEETSEDTKPQTMER
notes: ABCB6, human, UniProt Q9NP58; the preparation holds the N-terminal TMD0, but the final model has no density for it; The protein was eluted from Flag resin with 3X Flag peptide and no tag cleavage is described
binding result: binds
